Consider four molecules from article PMC7719400.

Assay [1] has as its target ORFV125 lacking the 30 C-terminal residues (orf virus). The experiment in a line: SEC. (Size exclusion chromatography separates by hydrodynamic size, large species first.)
The target is the same in assay [2]. The experiment in a line: ITC. (ITC needs no label: the signal is the heat of the interaction.)

The stoichiometry N is the number of molecules, sites or subunits per partner or assembly. As for “ORFV125 lacking the 30 C-terminal residues (domain or fragment)”, the stoichiometry N in assay [1] worked out at 2.

B1: Bax BH3 motif peptide (human, 50-77, 28-mer) (peptide)
peptide: VPQDASTKKLSECLKRIGDELDSNMELQ
By Kd is commonly meant the free concentration of one partner at which half of the binding sites on the other are occupied at equilibrium, for simple one-to-one binding. Lower therefore signals a tighter complex. In turn, B1 had a Kd in assay [2] of 0.682 µM.

B2: Bak BH3 motif peptide (human, 67-92) (peptide)
peptide: PSSTMGQVGRQLAIIGDDINRRYDSE
Regarding B2, the Kd in assay [2] stood at 5.8 µM.

B3: Puma BH3 motif peptide (human, 130-155) (peptide)
peptide: EEQWAREIGAQLRRMADDLNAQYERR
B3: the Kd in assay [2] stood at 1.75 µM. Against the preceding molecule, the Kd is about 3.3-fold lower.
